The target in experiment [1] is UAG binding sites on human CAC (circulating angiogenic cell) membranes (human). The experiment in a line: saturation radioligand binding on CAC membranes.
Experiment [2] has the same target. In words: radioligand binding to fresh CAC membranes, two cell preparations.
Experiment [3] shares this target. In words: radioligand binding to frozen-thawed CAC membranes, two cell preparations.
For experiment [4] the target is unchanged. The experiment in a line: radioligand binding to CAC membranes; binding without minus binding with 100 nM unlabelled UAG.
For experiment [5] the target is unchanged. In words: saturation radioligand binding on CAC membranes, Scatchard analysis.

Values joined by “and” are separate entries in the source; they are usually repeats but may differ in a detail not shown here. Equal values may be shown once. Where no end group is shown, it is not given here. The star is where a group is joined. 125I = [125I]*

Consider one molecule from patent US20100016226A1.

For the molecule GSSY(125I)LSPEHQRVQQRKESKKPPAKLQPR [[125I-Tyr4]-UAG], the radioligand concentration at maximal specific binding in experiment [1] turned out to be 2 nM. For the same molecule, the specific binding, fresh CAC membranes in experiment [2] is 0.25 fmol and 0.26 fmol. Besides, the specific binding, frozen-thawed CAC membranes in experiment [3] is 0.2 fmol and 0.33 fmol. The molecule further gave a specific binding, percent of control value in experiment [4] of 75%. In experiment [5], this molecule registered a Bmax (fmol/mg membrane protein) of 10.7 and a Kd of 480 pM.

For orientation: Kd means a measure of binding affinity in units of concentration. The low end stands for higher affinity, the high end for lower affinity.
